Measurements published in US20090041770A1.

target: human FcRn fused to a His-tag and glutathione S transferase (FcRn-His-GST), complex of FcRn heavy chain with beta-2-microglobulin (human) (UniProt P55899); experiment: AlphaScreen competition, 25 mM NaCl

Medan Fold Increase | Substance
5.99 | P257N/^281S (antibody)

target: human FcRn fused to a His-tag and glutathione S transferase (FcRn-His-GST), complex of FcRn heavy chain with beta-2-microglobulin (human) (UniProt P55899); experiment: AlphaScreen competition

Substance | FcRn Binding ratio Variant / WT
L328Q/I332E (antibody) | 4.29
L328R (antibody) | 1.82
L328W (antibody) | 1.35
N276F (antibody) | 1.18
N276H (antibody) | 1.19
N276R (antibody) | 1.19
N276V (antibody) | 1.27
N286E (antibody) | 2.12
N286P (antibody) | 2.9
N325D (antibody) | 1.45
N325F (antibody) | 1.22
P227E (antibody) | 1.49
P227G (antibody) | 1.67
P227K (antibody) | 1.45
P228K (antibody) | 1.55
P230E (antibody) | 1.01
P232K (antibody) | 1.56
P238G (antibody) | 1.53
P238H (antibody) | 1.46
P238K (antibody) | 5.01
P238T (antibody) | 1.12
P238V (antibody) | 1.43
P271V (antibody) | 1.06
P291I (antibody) | 1.15
P331L (antibody) | 1.77

Substance | FcRn Binding ratio Variant / WT
P331Y (antibody) | 6.06
R292D (antibody) | 1.67
S239D/I332D (antibody) | 1.12
S239E (antibody) | 1.47
S239E/V264I/A330Y/I332E (antibody) | 2.36
S239E/V264I/I332E (antibody) | 2.71
S239Q/I332E (antibody) | 1.33
S239Q/I332N (antibody) | 1.11
S239R (antibody) | 1.04
S267L/A327S (antibody) | 1.05
S298H (antibody) | 3.99
S324G (antibody) | 2.74
T223E (antibody) | 2.04
T223K (antibody) | 2.97
T225E (antibody) | 4.89
T225K (antibody) | 5.68
T225W (antibody) | 6.89
T260D (antibody) | 1.71
T260E (antibody) | 5.49
T260H (antibody) | 7.3
T260Y (antibody) | 7.51
T299F (antibody) | 1.86
T299Y (antibody) | 3.85
T335F (antibody) | 1.19
T335I (antibody) | 1.41

Substance | FcRn Binding ratio Variant / WT
T335N (antibody) | 1.23
T335P (antibody) | 1.45
V263I (antibody) | 2.71
V264A (antibody) | 1.12
V264I (antibody) | 1.32
V264I/I332E (antibody) | 1.7
V264S (antibody) | 5.13
V264T (antibody) | 1.66
V282E (antibody) | 1.91
V282K (antibody) | 1.44
V302I (antibody) | 2.44
V303E (antibody) | 1.63
Y278L (antibody) | 1.74
Y278M (antibody) | 1.28
Y278N (antibody) | 1.33
Y278S (antibody) | 1.23
Y278V (antibody) | 1.27
Y296I (antibody) | 1.71
Y296L (antibody) | 2.78
Y300E (antibody) | 1.27
Y300K (antibody) | 1.01
Y300M (antibody) | 1.1
Y300Q (antibody) | 1.11

The next lines start with the values.

FcRn Binding ratio Variant / WT | Substance
1.18 | N276D (antibody)
1.21 | N276L (antibody)
2 | N276W (antibody)
1.45 | N286Y (antibody)
1.43 | N325M (antibody)
1.77 | P228G (antibody)
1.45 | P228Y (antibody)
1.16 | P230G (antibody)
1.03 | P238D (antibody)
3.71 | P238E (antibody)
2.41 | P238F (antibody)
1.44 | P238I (antibody)
1.71 | P238L (antibody)
2.33 | P238M (antibody)
1.15 | P238N (antibody)
1.12 | P238S (antibody)
1.3 | P238W (antibody)
1.01 | P271A (antibody)
1.99 | P271I (antibody)
1.14 | P271S (antibody)
3.88 | P271T (antibody)
1.48 | P271Y (antibody)
2.56 | P291H (antibody)

FcRn Binding ratio Variant / WT | Substance
1.24 | P291Q (antibody)
1.27 | P329K (antibody)
1.64 | P329R (antibody)
3.16 | P329W (antibody)
3.91 | P331F (antibody)
3.82 | Q295T (antibody)
1.19 | Q295V (antibody)
1.16 | R255E (antibody)
12.9 | R255Y (antibody)
1.45 | R292E (antibody)
1.36 | R292Y (antibody)
2.92 | R301E (antibody)
1.73 | S239D (antibody)
1.26 | S239D/D265H/N297D/I332E (antibody)
1.81 | S239D/E272I/I332E (antibody)
1.49 | S239D/E272S/I332E (antibody)
1.31 | S239D/E272Y/I332E (antibody)
2.22 | S239D/K326T/I332E (antibody)
3.09 | S239D/N297D/I332E (antibody)
1.34 | S239E/I332E (antibody)
10.1 | S239E/V264I/S298A/A330Y/I332E (antibody)
1.16 | S239G (antibody)
4.6 | S239L (antibody)

FcRn Binding ratio Variant / WT | Substance
1.03 | S239M (antibody)
1.04 | S239Q/I332Q (antibody)
1.12 | S239T (antibody)
1.17 | S239V (antibody)
2.24 | S267E (antibody)
1.7 | S267K (antibody)
1.54 | S298E (antibody)
1.15 | S298F (antibody)
2.13 | S298T (antibody)
1.19 | S304N (antibody)
2.86 | S304T (antibody)
1.27 | S324D (antibody)
1.07 | S324T (antibody)
2.03 | T299H (antibody)
1.09 | T299W (antibody)
1.16 | T335H (antibody)
1.5 | T335L (antibody)
1.35 | T335M (antibody)
1.42 | T335S (antibody)
1.25 | T335V (antibody)
1.35 | T335W (antibody)
1.28 | V240I (antibody)
2.5 | V240M (antibody)

FcRn Binding ratio Variant / WT | Substance
2.61 | V240T (antibody)
9.27 | V262E (antibody)
7.67 | V264D (antibody)
1.07 | V264F (antibody)
1.13 | V264I/A330L/I332E (antibody)
3.39 | V264N (antibody)
1.17 | V266I (antibody)
1.16 | V282G (antibody)
1.92 | V282Y (antibody)
1.51 | V284L (antibody)
1.15 | V284T (antibody)
1.15 | V303Y (antibody)
1.79 | Y278D (antibody)
1.52 | Y278I (antibody)
1.23 | Y278R (antibody)
1.23 | Y296E (antibody)
1.04 | Y300A (antibody)
1.07 | Y300G (antibody)
1.14 | Y300N (antibody)
1.09 | Y300V (antibody)
